# Assay results from the MegaScale stability set (Tsuboyama et al. 2023).
# B1: EHEE_rd2_0191 (parent)
# chain: TTEYTFTDDEEARRAIEELKKRGLTFRYEKHGTTWRVRVD
# Variants of: B1
# Experiment: folding stability dG (cDNA display proteolysis); higher = more stable
# Conditions: PBS, room temperature
row,Variant,folding stability dG [kJ/mol]
1,TNEYTFTDDEEARRAIEELKKRGLTFRYEKHGTTWRVRVD [T2N],6.61
2,TGEYTFTDDEEARRAIEELKKRGLTFRYEKHGTTWRVRVD [T2G],5.94
3,TSEYTFTDDEEARRAIEELKKRGLTFRYEKHGTTWRVRVD [T2S],7.01
4,TREYTFTDDEEARRAIEELKKRGLTFRYEKHGTTWRVRVD [T2R],9.51
5,TEEYTFTDDEEARRAIEELKKRGLTFRYEKHGTTWRVRVD [T2E],7.35
6,TIEYTFTDDEEARRAIEELKKRGLTFRYEKHGTTWRVRVD [T2I],10.5
7,TYEYTFTDDEEARRAIEELKKRGLTFRYEKHGTTWRVRVD [T2Y],10.1
8,TFEYTFTDDEEARRAIEELKKRGLTFRYEKHGTTWRVRVD [T2F],9.76
9,TDEYTFTDDEEARRAIEELKKRGLTFRYEKHGTTWRVRVD [T2D],5.64
10,TWEYTFTDDEEARRAIEELKKRGLTFRYEKHGTTWRVRVD [T2W],11
11,TCEYTFTDDEEARRAIEELKKRGLTFRYEKHGTTWRVRVD [T2C],12.1
12,TPEYTFTDDEEARRAIEELKKRGLTFRYEKHGTTWRVRVD [T2P],3.9
13,TQEYTFTDDEEARRAIEELKKRGLTFRYEKHGTTWRVRVD [T2Q],8.36
14,TLEYTFTDDEEARRAIEELKKRGLTFRYEKHGTTWRVRVD [T2L],9.64
15,THEYTFTDDEEARRAIEELKKRGLTFRYEKHGTTWRVRVD [T2H],8.72
16,TAEYTFTDDEEARRAIEELKKRGLTFRYEKHGTTWRVRVD [T2A],7.61
17,TVEYTFTDDEEARRAIEELKKRGLTFRYEKHGTTWRVRVD [T2V],10.1
18,TMEYTFTDDEEARRAIEELKKRGLTFRYEKHGTTWRVRVD [T2M],9.2
19,TKEYTFTDDEEARRAIEELKKRGLTFRYEKHGTTWRVRVD [T2K],8.4
20,TTEYTLTDDEEARRAIEELKKRGLTFRYEKHGTTWRVRVD [F6L],0.703
21,TTEYTYTDDEEARRAIEELKKRGLTFRYEKHGTTWRVRVD [F6Y],8.19

row,Variant,folding stability dG [kJ/mol]
1,TTEYTTTDDEEARRAIEELKKRGLTFRYEKHGTTWRVRVD [F6T],-1.81
2,TTEYTMTDDEEARRAIEELKKRGLTFRYEKHGTTWRVRVD [F6M],-0.464
3,TTEYTGTDDEEARRAIEELKKRGLTFRYEKHGTTWRVRVD [F6G],-2.18
4,TTEYTITDDEEARRAIEELKKRGLTFRYEKHGTTWRVRVD [F6I],2.57
5,TTEYTWTDDEEARRAIEELKKRGLTFRYEKHGTTWRVRVD [F6W],3.1
6,TTEYNFTDDEEARRAIEELKKRGLTFRYEKHGTTWRVRVD [T5N],5.7
7,TTEYGFTDDEEARRAIEELKKRGLTFRYEKHGTTWRVRVD [T5G],0.36
8,TTEYEFTDDEEARRAIEELKKRGLTFRYEKHGTTWRVRVD [T5E],7.49
9,TTEYHFTDDEEARRAIEELKKRGLTFRYEKHGTTWRVRVD [T5H],6.97
10,TTEYDFTDDEEARRAIEELKKRGLTFRYEKHGTTWRVRVD [T5D],3.43
11,TTEYIFTDDEEARRAIEELKKRGLTFRYEKHGTTWRVRVD [T5I],11.3
12,TTEYCFTDDEEARRAIEELKKRGLTFRYEKHGTTWRVRVD [T5C],9.75
13,TTEYKFTDDEEARRAIEELKKRGLTFRYEKHGTTWRVRVD [T5K],5.46
14,TTEYWFTDDEEARRAIEELKKRGLTFRYEKHGTTWRVRVD [T5W],11.2
15,TTEYLFTDDEEARRAIEELKKRGLTFRYEKHGTTWRVRVD [T5L],9.42
16,TTEYYFTDDEEARRAIEELKKRGLTFRYEKHGTTWRVRVD [T5Y],10
17,TTEYMFTDDEEARRAIEELKKRGLTFRYEKHGTTWRVRVD [T5M],8.17
18,TTEYVFTDDEEARRAIEELKKRGLTFRYEKHGTTWRVRVD [T5V],10.6
19,TTEYSFTDDEEARRAIEELKKRGLTFRYEKHGTTWRVRVD [T5S],6.23
20,TTEYRFTDDEEARRAIEELKKRGLTFRYEKHGTTWRVRVD [T5R],6.84
21,TTEYFFTDDEEARRAIEELKKRGLTFRYEKHGTTWRVRVD [T5F],10.5

row,Variant,folding stability dG [kJ/mol]
1,TTEYQFTDDEEARRAIEELKKRGLTFRYEKHGTTWRVRVD [T5Q],6.85
2,TTEYAFTDDEEARRAIEELKKRGLTFRYEKHGTTWRVRVD [T5A],5.15
3,TTEWTFTDDEEARRAIEELKKRGLTFRYEKHGTTWRVRVD [Y4W],9.29
4,TTEQTFTDDEEARRAIEELKKRGLTFRYEKHGTTWRVRVD [Y4Q],2.51
5,TTEITFTDDEEARRAIEELKKRGLTFRYEKHGTTWRVRVD [Y4I],6.01
6,TTELTFTDDEEARRAIEELKKRGLTFRYEKHGTTWRVRVD [Y4L],8.05
7,TTEATFTDDEEARRAIEELKKRGLTFRYEKHGTTWRVRVD [Y4A],0.247
8,TTECTFTDDEEARRAIEELKKRGLTFRYEKHGTTWRVRVD [Y4C],11.7
9,TTEMTFTDDEEARRAIEELKKRGLTFRYEKHGTTWRVRVD [Y4M],7.48
10,TTEVTFTDDEEARRAIEELKKRGLTFRYEKHGTTWRVRVD [Y4V],3.37
11,TTERTFTDDEEARRAIEELKKRGLTFRYEKHGTTWRVRVD [Y4R],1.6
12,TTEKTFTDDEEARRAIEELKKRGLTFRYEKHGTTWRVRVD [Y4K],0.51
13,TTEFTFTDDEEARRAIEELKKRGLTFRYEKHGTTWRVRVD [Y4F],8.32
14,TTESTFTDDEEARRAIEELKKRGLTFRYEKHGTTWRVRVD [Y4S],0.151
15,TTEHTFTDDEEARRAIEELKKRGLTFRYEKHGTTWRVRVD [Y4H],3.3
16,TTENTFTDDEEARRAIEELKKRGLTFRYEKHGTTWRVRVD [Y4N],-2.39
17,TTETTFTDDEEARRAIEELKKRGLTFRYEKHGTTWRVRVD [Y4T],1.32
18,TTEETFTDDEEARRAIEELKKRGLTFRYEKHGTTWRVRVD [Y4E],-0.151
19,TTTYTFTDDEEARRAIEELKKRGLTFRYEKHGTTWRVRVD [E3T],9.66
20,TTIYTFTDDEEARRAIEELKKRGLTFRYEKHGTTWRVRVD [E3I],10.6
